# Test results taken from patent US20220315908A1, “NOVEL GARDNERELLA ENDOLYSINS AND USES THEREOF” (priority 2019, published 2022).
# Numbering of substitutions follows the chain as printed.
# B1: H10B10: natural Gardnerella prophage endolysin from strain G30-4 (protein)
# chain: MSKRGIDVSVWQGDIDFNAVKASGVEFVIIRAGYGIGHKDKWFEENYRKAKTVGLDVGAYWYSYASSAGEASEEAQSCVNILSGKSFEYPVYFDLEEKSQLNRGRDFCDSLITSFCNKLEACGYYAGFYTSLSVANNLVSSHVRDRYALWIAQWNTHCSYQGSYGLWQYSSSGSVNGIAGRVDMDYAYVDYPSVIKNAGLNGYKNGGSYTAPQISSIDEVAREVINGDWGNGNERKQRLTSAGYDYASVQNKVNELLGVKAYRKSVDELAREVIRGTWGNGSTRKQRLTQAGYDYNAVQKRVNELL
# modifications: EL10_strain_G30-4
# B2: H2B2: natural Gardnerella prophage endolysin from strain Gv18-4 (protein)
# chain: MSKRGIDVSEWQGDIDFNAVKASGVEFVIIRAGYGIGCKDKWFEQNYRKAKTCGLDVGAYWYSYANSGFEAAEEAQSCVNMLSGKSFEYPVYFDLEEKSQLNRGRAFCDSLITGFCNKLESCGYYAGFYTSLSTANNLVSAHVRNRYALWIAQWNTHCSYQGSYGLWQYSSSGSVPGVAGRVDMDYAYVDYPSIIKNVGLNGCKNGGSDQAARTSSIDEVAREVINGAWGNGNERKQRLTSAGYDYASVQNKVNELLGVKACRKSVDEIAREVIRGTWGNGSTRKQRLTQAGYDYDTVQKRVNELL
# modifications: EL2_strain_Gv18-4
# B3: H1B1: natural Gardnerella prophage endolysin from strain HMP9231 (protein)
# chain: MSKKGIDVSEWQGDIDFNAVKASGVEFVIIRAGYGIGCKDKWFEQNYRKAKTAGLDVGAYWYSYANSGFEAAEEAQSLMNMLSGKSFEYPVYFDLEEKSQLNRGRAFCDSLITSFCNKLEACGYYAGFYTSLSTANNLVSAHVRNRYALWIAQWNTHCNYQGSYGLWQYSSNGSVPGVAGRVDMDYAYVDYPSIIKNAGLNGCKNGGSDQAARTSSIDEVAREVINGAWGNGSTRKQRLTSAGYDYASVQNKVNELLGVKACRKSVDELAREVIRGAWGNGSTRKQRLAQAGYDYDTVQKRVNELL
# modifications: EL1_strain_HMP9231
# notes: natural Gardnerella prophage endolysin from strain HMP9231
# B4: H4B4: natural Gardnerella prophage endolysin from strain Gv5-1 (protein)
# chain: MSKKGIDVSEWQGDIDFNAVKASGVEFVIIRAGYGIGCKDKWFEQNYRKAKTCGLDVGAYWYSYANSGFEAAEEAQSCVNMLSGKSFEYPVYFDLEEKSQLNRGRAFCDSLITSFCSKLETYGYYAGFYTSLSVVNNLVSAHVRDRYALWIAQWNTHCSYQGSYGLWQYSSSGSVPGVAGRVDMDYAYVDYPSIIKNVGLNGCKNGGSDQATRTSSIDEVAREVINGAWGNGNERKQRLTSAGYDYASVQNKVNKLLGVKAYRKSVDELAREVIRGTWGNGNERKQRLAQAGYDYDTVQKRVNELL
# modifications: EL4_strain_Gv5-1
# B5: H5B5: natural Gardnerella prophage endolysin from strain JCP7276 (protein)
# chain: MSKKGIDVSEWQGDIDFNAVKASGVEFVIIRAGYGIGCKDKWFEQNYRKAKTAGLDVGAYWYSYANSSSEAAEEAQSCANMLSGKSFEYPVYFDLEEKSQLNRGRAFCDSLITGFCSKLEACGYYAGFYTSLSTANNLVSAHVRNRYALWIAQWNTHCSYQGSYGLWQYSSNGSVPGVAGRVDMDYAYKDYPSIIKNAGLNGCKNGGSDQAARTSSIDEVAREVINGAWGNGNERKQRLTQAGYDYTSVQNKVNKLLGVKACRKSVDELAREVIRGTWGNGNERKNRLTQAGYDYDTVQKRVNELL
# modifications: EL5_strain_JCP7276
# notes: natural Gardnerella prophage endolysin from strain JCP7276
# B6: H7B7: natural Gardnerella prophage endolysin from strain AMD (protein)
# chain: B5 chain with S68A, G114S, A121T, C122Y, A141S, N172S
# modifications: EL7_strain_AMD
# notes: natural Gardnerella prophage endolysin from strain AMD
# B7: H3B3: natural Gardnerella prophage endolysin from strain Gv18-4 (protein)
# chain: MSKKGIDVSVWQGDIDFNSVKASGVEFVIIRAGYGIGHKDKWFEENYRKAKTAGLDVGSYWYSYASSAGEASEEAQSCVNILSGKSFEYPIYFDLEEKSQLNRGRDFCDSLITSFCNKLEACGYYAGFYTSLSVANNLVSSHVRDRYALWIAQWNTHCSYQGSYGLWQYSSSGSVNGIAGRVDMDYAYVDYPSVIKNAGLNGYQNGGSYTAPQTSSIDEVAREVINGDWGNGNDRKNRLISAGYDYASVQNKVNELLGVKAYRKSVDELAREVIRGTWGNGSMRKHRLTQAGYDYDAVQKRVNELL
# modifications: EL3_strain_Gv18-4
# Columns and labels:
# [1] = test system: four Gardnerella strains (Gv_9, Gv_11, Gv_17, Gv_23); assay: CFU reduction averaged across the four Gardnerella strains, with activity ranks; assay type: cell-based; details: for average of the log 10 activities of each construct across the four Gardnerella strains: pH 5.0, 5 hours, anaerobic; for activity rank of all endolysins: rank 1-91, based on the data of Table 5B
# Experimental: (§1) The lysis activity on the four main species of Gardnerella of 91 constructs (natural and domain-swapped endolysins) was quantitatively assessed using the method described in Reference Example 2. Briefly, 90 ul 5e7 CFU/ml of the indicated strain were incubated for 5 hours at pH 5.0 under anaerobic conditions with 10 ul endolysin (concentration adjusted to 0.2 mg/ml where possible, see Table 4).
# (§2) The results are shown in FIGS. 8A to 8D together with Tables 5A to 5C. In FIGS. 8A to 8D, the logarithmic Y axis depicts the count of surviving cells. The dotted line indicates the limit of detection (LOD) given by plating of 2 ul of the reaction mix (500 CFU/ml). Each combination of the natural 10 H-domains and the natural 9 B-regions was assessed, including the natural endolysins (H1B1, H2B2, H3B3, etc.), plus H6B6. […] The activity of each construct was measured on each of the 4 main Gardnerella species G. vaginalis sensu stricto, G. leopoldii, G. piotii, and G. swidsinkii. All conditions have been measured in triplicate. The survival after 5 hours incubation at pH 5.0 under anaerobic conditions with endolysins vs. buffer was measured by quantitative plating. The values indicate the log 10 of the ratio of surviving CFU for treated vs. untreated cells. The average of the triplicate measurements is used. In tables 5A and 5B, high negative log 10 values, e.g. −6.7, −5.5, −4.8 etc. are associated with high enzymatic activity, while log 10 values closer to zero or even positive log 10 values are associated with low or no enzymatic activity. […] Inversely, a reduction value of −3.7 means a 10^3.7-fold (=5012-fold) reduction of viable CFU in treated sample vs. untreated control.
# (§3) Gardnerella cells were recovered from cryo stock by plating on Chocolate Agar plates (Beckton Dickinson) and incubating for 48 h at 37° C. under anaerobic conditions. For Lactobacilli, BD Schaedler/5% sheep blood agar plates were used instead. Colonies were scraped from the plate, resuspended in Hardy Broth or NYC-III-HS-5.0 at the pH as indicated, and the suspension adjusted to OD (610 or 620 nm as indicated) 0.1. It has to be noted that two Tecan Microplate readers, having respectively a 610 nm or 620 nm filter, have been used interchangeably in the experiments. Although it doesn't make any difference for the experiments, the exact wavelength used is specified in each example. If not stated otherwise, 90 μl cell suspension was mixed with 10 μl endolysin solution, for the different species/endolysin combinations, in 384-well plates. OD(610-620 nm as indicated) was measured at the beginning of the reaction and at the end, either as two measurement points or as a continuous kinetic in a Tecan F200 Microplate reader. The reactions were incubated for 5 hours (or otherwise the time indicated) at 37° C. under anaerobic, micro-aerophilic or aerobic conditions as indicated. Anaerobic conditions intend that oxygen was fully depleted from the container in which the bacteria are incubated (Sigma-Aldrich anaerobic jar or sealable lunch box) with an anaerobic sachet, and the lack of oxygen was confirmed with an anaerobic indicator inside the container. Where micro-aerophilic conditions are indicated, the candle-in-a-jar method was used (tea candle lit in an appropriate sealable container, which reduces oxygen levels until the flame dies out).
# [2] = test system: G. leopoldii strain Gv_11; assay: Quantitative reduction in viable CFU assay in bacterial suspension; assay type: cell-based, Gardnerella leopoldii; details: 5 hours, pH 5.0, anaerobic, 10 ul endolysin (0.2 mg/ml where possible) + 90 ul 5e7 CFU/ml, average of triplicate
# Experimental: as §1, §2
# as §3, with “out). Then each well was diluted in 5 steps (10^−1 to 10^−5) using 96-U-well bottom plates, and 2 μl of each dilution of each reaction mix are plated on BD Chocolate agar plates or BD Schaedler/5% sheep blood agar plates for Gardnerella and Lactobacilli, respectively, for detecting and quantifying surviving CFU. Detection plates were incubated at 37° C. for 48 hours under anaerobic conditions.” for “out).”
# [3] = test system: G. vaginalis sensu stricto strain Gv_9; assay: as above; assay type: cell-based, Gardnerella vaginalis sensu stricto; details: Gv_9; 5 hours, pH 5.0, anaerobic; 10 ul endolysin (0.2 mg/ml where possible) + 90 ul 5e7 CFU/ml; average of triplicate
# Experimental: The lysis activity on the four main species of Gardnerella of 91 constructs (natural and domain-swapped endolysins) was quantitatively assessed using the method described in Reference Example 2. […]
# as §2
# as §3, with “out). Then each well was diluted in 5 steps (10^−1 to 10^−5) using 96-U-well bottom plates, and 2 μl of each dilution of each reaction mix are plated on BD Chocolate agar plates or BD Schaedler/5% sheep blood agar plates for Gardnerella and Lactobacilli, respectively, for detecting and quantifying surviving CFU. Detection plates were incubated at 37° C. for 48 hours under anaerobic conditions.” for “out).”
Molecule,average of the log 10 activities of each construct across the four Gardnerella strains [1] [log 10],activity rank of all endolysins [1],log 10 of the ratio of surviving CFU for treated vs. untreated cells [2] [log 10],log 10 of the ratio of surviving CFU for treated vs. untreated cells [3] [log 10]
B1,−3.3,6,−1.6,−3.5
B2,−2.6,25,−1.1,−1.2
B3,−1.9,44,−1.3,−1.9
B4,−0.8,76,−0.5,−0.4
B5,0.1,87,0.3,0.2
B6,−2.0,40,−2.1,−1.6
B7,−3.0,13,−2.0,−3.0
